This test deals with ShAb01 (nurse shark (Ginglymostoma cirratum)). Description: BLI. Conditions: both partners purified.

B1: SARS-CoV-1 RBD (domain or fragment)
chain: not shown
In general, Kd refers to a measure of binding affinity in units of concentration. High values mean a looser complex, low ones a tighter complex. For B1, binding was put at a Kd of 198 nM.

Values taken from publication PMC9896449 (Nature Communications, 2023).
